Test results reported in patent US5534260A, “Percutaneous drug delivery system” (priority 1994, dated 1996).
“Also recorded” adds a separate entry of the source. Read-outs that look alike come from different tables or passages of the source.

Experiments:
[1] = Effect of non-enzyme components in admixture with papain on penetration of 14C-TEAB (Example IV)
in vitro = conditions: mouse
[2] = Penetration of polypeptides through papain-pretreated mouse skin, SDS-PAGE; type: in vitro ADME; conditions: for fragmentation of diffused polypeptide: diffused through papain treated skin, SDS-PAGE
Text: After papain skin treatment pursuant to Example III.1 above, polypeptides were diffused through the pretreated mouse skin using the same concentration and pH values for each test. Pure buffer solution was also diffused through the pretreated skin of the mouse to determine if any endogenous proteins diffused into the diffusate.
Comparisons of solutions of non-diffused polypeptides, diffused polypeptides and diffused buffer solutions were made using gel electrophoresis. The system used for these determinations was sodium dodecyl sulfate polyacrylamide gel electrophoresis (SDS-PAGE), a procedure well-known in the art. These comparisons determined if fragmentation of the diffused polypeptide molecules occurred.
A series of polypeptides of various molecular weights were studied.

[3] = mouse
[4] = Skin damage / irritation by papain pretreatment; conditions: in words
[5] = Fourier Transform Infrared spectroscopy of stratum corneum; design: species or system mouse; conditions: for Absorbance in protein areas, peak position: Table I; for FTIR peak, Amide III / FTIR peak, Shoulder Beta sheet / FTIR peak, Alpha helix peak: Table IV; for FTIR peak, Amide III: untreated 1244; for FTIR peak, Shoulder Beta sheet: untreated 1267; for FTIR peak, Alpha helix peak: untreated 1295; for Symmetric CH peak position / Asymmetric CH peak position: Table V; for Symmetric CH peak position: normal SC 2848.3; for Asymmetric CH peak position: normal SC 2916.5; for Length of 70% line, symmetric line / Length of 70% line, asymmetric line: Table VI; for Length of 70% line, symmetric line: normal SC 8.6; for Length of 70% line, asymmetric line: normal SC 17.5
Description: A. Comparisons of normal stratum corneum (from mouse skin) to stratum corneum treated with a 0.09% concentration of papain for 24 hours was performed using Fourier Transform Infrared spectroscopy (FTIR). […] It is postulated that a shift from a random form of protein to the more organized beta sheet structure occurs. The alpha-helix structures of skin protein could be fractionated, uncoiled, or both.
A comparison of symmetric and asymmetric CH stretch bands was then made. These two bands represent lipid structure and would show any changes in the stratum corneum lipids caused by the papain.
B. Azone™ was tested as a permeation enhancer with and without the presence of papain.

[6] = Enhancement of acetylcholine chloride penetration through hairless mouse skin at pH 7.4 (Example III); type: in vitro ADME
Description: A percutaneous permeation enhancer having the following formula was prepared: […]
The effect of the percutaneous enhancer, as prepared in Example II above, was measured on the penetration of the quaternary compound acetylcholine chloride through hairless mouse skin at pH 7.4. […] The data below indicates a potentiating or synergistic effect in combining the agents for use as an enhancer.
Enhancement effect of 0.0465 mg/ml Sigma papain alone and in
combination with 2% Azone™ and 15% propylene glycol on the
penetration of acetylcholine chloride through hairless mouse

[7] = 14C-TEAB through pretreated skin (n = 1 for components alone, n = 2 combinations, n = 3 papain 0.0465 mg/ml 24 hours)
[8] = acetylcholine chloride, pH 7.4, pretreated skin
[9] = TEAB, pretreated with papain 0.170 mg/0.200 ml ([…])

Molecule: CCCCCCCC/C=C\CCCCCCCCO [10% oleyl alcohol, oleyl alcohol]
- J (flux) [1, 7]: 1.49 × 10^-4 mg cm^-2 s^-1

Molecule: CC[N+](CC)(CC)CC.[Br-] [TEAB, tetraethylammonium bromide]
- P (permeability) (mouse): 0.0254 ×10⁻⁶ cm/s
- Papp (in vitro): 0.00495 ×10⁻⁶ cm/s

Molecule: carbonic anhydrase: Carbonic anhydrase, MW 29,000
- fragmentation of diffused polypeptide [2]: fractionated during the permeation process
- breakdown of molecule on exposure to papain treated skin without diffusion ([2]; donor solution of the diffusion cell): no change or breakdown of the molecule

Molecule: dioxolane [2% dioxolane]
- P (permeability) [3]: 0.00521 ×10⁻⁶ cm/s

Molecule: insulin: Insulin (Regular, Bovine), MW 6,000
- fragmentation of diffused polypeptide [2]: determination of molecular fragmentation due to the permeation would be very difficult if not impossible

Molecule: lysozyme: Lysozyme, MW 14,400
- fragmentation of diffused polypeptide [2]: no significant difference in molecular size. The molecule remained intact and did not break apart

B1: papain: proteolytic enzyme; preferred enzyme, readily available from Sigma Chemical Company (protein, UniProt P00784 134-345, looked up)
Papain: IPEYVDWRQKGAVTPVKNQGSCGSCWAFSAVVTIEGIIKIRTGNLNEYSEQELLDCDRRSYGCNGGYPWSALQLVAQYGIHYRNTYPYEGVQRYCRSREKGPYAAKTDGVRQVQPYNEGALLYSIANQPVSVVLEAAGKDFQLYRGGIFVGPCGNKVDHAVAAVGYGPNYILIKNSWGTGWGENGYIRIKRGTGNSYGVCGLYTSSFYPVKN
- skin damage / irritation [4]: increased damage to the skin and can cause bleeding; also recorded: damage the skin, possibly leading to bleeding
- drug penetration (pH 7.4): greater drug penetration
- increase in absorption of TEAB (skin pretreated with papain): 3,346%
- J (flux) [1, 7]: (1.33 ± 0.48) × 10^-4 mg cm^-2 s^-1
- P (permeability) [1, 7]: (1.63 ± 0.59) × 10^-7 cm s^-1
- E (enhancement effect) ([1]; 14C-TEAB, n = 1 components alone, n = 2 combinations, n = 3 papain): 32.93
- recovery after removal of papain ([5]; 24 hours): partial recovery
- recovery after removal of papain ([5]; 48 hours): nearly complete recovery
- Absorbance in protein areas, peak position ([5]; untreated SC 1244): 1236.6 cm⁻¹
- Absorbance in protein areas, peak position ([5]; untreated SC 1267): 1263.7 cm⁻¹
- Absorbance in protein areas, peak position ([5]; untreated SC 1295): 1288.4 cm⁻¹
- Absorbance in protein areas, peak position ([5]; untreated SC 1400.5): 1403.8 cm⁻¹
- Absorbance in protein areas, peak position ([5]; untreated SC 1456): 1464.7 cm⁻¹
- Absorbance in lipid areas, symmetric CH peak position ([5]; Table II, untreated 2848.3): 2850 cm⁻¹
- Absorbance in lipid areas, asymmetric CH peak position ([5]; Table II, untreated 2916.5): 2920 cm⁻¹
- Length of the 70% line, symmetric CH ([5]; Table III, untreated 8.6): 9.1 cm⁻¹
- Length of the 70% line, asymmetric CH ([5]; Table III, untreated 17.5): 17.5 cm⁻¹
- FTIR peak, Amide III ([5]; 24 hr recovery after papain): 1242.4 cm⁻¹
- FTIR peak, Shoulder Beta sheet ([5]; 24 hr recovery after papain): 1271.8 cm⁻¹
- FTIR peak, Alpha helix peak ([5]; 24 hr recovery after papain): 1301.7 cm⁻¹
- FTIR peak, Amide III ([5]; 48 hr recovery after papain): 1243.2 cm⁻¹
- FTIR peak, Shoulder Beta sheet ([5]; 48 hr recovery after papain): 1268.4 cm⁻¹
- FTIR peak, Alpha helix peak ([5]; 48 hr recovery after papain): 1296.5 cm⁻¹
- FTIR peak, Amide III ([5]; papain treated): 1236 cm⁻¹
- FTIR peak, Shoulder Beta sheet ([5]; papain treated): 1262 cm⁻¹
- FTIR peak, Alpha helix peak ([5]; papain treated): 1288 cm⁻¹
- Symmetric CH peak position ([5]; 48 hr recovery SC): 2849.3 cm⁻¹
- Asymmetric CH peak position ([5]; 48 hr recovery SC): 2916.5 cm⁻¹
- Symmetric CH peak position ([5]; papain treated SC): 2848.5 cm⁻¹
- Asymmetric CH peak position ([5]; papain treated SC): 2916.3 cm⁻¹
- Length of 70% line, symmetric line ([5]; 48 hr recovery SC): 10.5 cm⁻¹
- Length of 70% line, asymmetric line ([5]; 48 hr recovery SC): 19.3 cm⁻¹
- Length of 70% line, symmetric line ([5]; papain treated SC): 9.1 cm⁻¹
- Length of 70% line, asymmetric line ([5]; papain treated SC): 17.5 cm⁻¹
- change in lipid structure / CH stretch bands of stratum corneum ([5]; in words): no change in lipid structure
- change in protein FTIR areas of stratum corneum ([5]; in words): significant changes occurring in the amide III, beta sheet, and alpha-helix formations of the stratum corneum cells
- E (enhancement effect) ([6]; acetylcholine chloride, pH 7.4): 88.4
- J (flux) [6, 8]: 5.67 × 10^-4 mg/cm^2 /sec
- P (permeability) [6, 8]: 2.83 ×10⁻⁶ cm/s
- increase in penetration of acetylcholine chloride ([6]; pH 7.4, pretreatment): eighty-eight

B2: Allergan papain: papain contained in a contact lens cleaning product (tablets for dissolution in water) wherein activators are included (protein, UniProt P00784 134-345, looked up)
Papain: IPEYVDWRQKGAVTPVKNQGSCGSCWAFSAVVTIEGIIKIRTGNLNEYSEQELLDCDRRSYGCNGGYPWSALQLVAQYGIHYRNTYPYEGVQRYCRSREKGPYAAKTDGVRQVQPYNEGALLYSIANQPVSVVLEAAGKDFQLYRGGIFVGPCGNKVDHAVAAVGYGPNYILIKNSWGTGWGENGYIRIKRGTGNSYGVCGLYTSSFYPVKN
modifications: contact lens cleaning tablet with activators
- J (flux) [9]: 1.04 × 10^-3 mg/cm^2 /sec
- P (permeability) [9]: 1.29 ×10⁻⁶ cm/s
